This is an account of results in doi:10.1101/2025.11.04.686334 (2025).

Some targets named below: HA220-M4T; HA220-4; HA220-1 (human, UniProt Q9NZ52 16-146).
Holding throughout (assay): BLI
(In general: In BLI a coated tip is dipped into the sample, and binding shifts an interference pattern.)

B1: D2 H1-1/H3-1 mAb (antibody, V domains shown)
VH: QVQLVQSGGGLVRPGGSLRLSCAASGFTFSSAWMTWVRQAPGKGLEWVANIKEDGSEKYYVDSVKGRFSISRDNAKNSLYLQISSLRAEDTAVYYCARRFVERLWGQSKPYDAVDIWGQGTMVTVSG
VL: DIQMTQSPSSLSASVGDRVTITCRASQSISNYLNWYQQKPGKAPKLLIYVASNLQSGVPSRFSGSGSGTDFALTISSLQPEDFASYYCQQSYSPVTTFGGGTKVEIK
As usually defined, the Kd is the equilibrium constant for the complex coming apart. One may read the koff as the rate constant with which the complex falls apart. Low readings indicate a long-lived complex, high ones a short-lived complex. For B1, in the assay with HA220-M4T, the Kd came out at 2.55 nM and the koff amounted to 0.00017 s⁻¹. The Kd with HA220-4 came out at 65 nM.

B2: FluA-20 mAb (antibody, V domains shown)
VH: QVQLEESGPGLVKPSETLSLTCSVSGVSVTSDIYYWTWIRQPPGKGLEWIGYIFYNGDTNYNPSLKSRVTMSIDTSKNEFSLRLTSVTAADTAVYFCARGTEDLGYCSSGSCPNHWGQGTLVTVSS
VL: DIVMTQSPSSLSASIGDRVTITCRPSQNIRSFLNWFQHKPGKAPKLLIYAASNLQSGVPSRFSGSGSGTEFTLTIRSLQPEDFATYYCQQSYNTPPTFGQGTKVEIK
With B2, the Kd with HA220-M4T was 0.253 nM; in the assay with HA220-1, more than 12000 nM; with HA220-4, 110 nM.

B3: S1V2-58 mAb (antibody, V domains shown)
VH: QVQLQESGPGLVKPSETLSLTCTVSGGSLSIYYWSWVRQSPGKGLEWIGYISNSGSPTYHPSLKSRVTISLDTSKSQFSLKLTSVTAADTALYFCARGVLEQLAPDFDSYYYGMNVWGQGTTVTVSG
VL: DIQMTQSPSSVSASLGDRVTLTCRASQPIRSYLNWYQHKPGLAPKLLVYAVSNLQSGVPSRFSGSGSGTDFTLTVSSLQPEDFATYYCQQSYSTPYTFGQGTRLEIK
As for B3, the Kd with HA220-M4T is 10.7 nM; with HA220-4, 178 nM. Besides, the koff in the assay with HA220-M4T amounted to 0.00043 s⁻¹.
